According to patent publication US20130236459A1 (MERRIMACK PHARMACEUTICALS, published 2013):
Where two headings read alike, the source gives them in different places.

Columns and labels:
[1] = molecular target: T1, IGF-1R (receptor for insulin-like growth factor 1), endogenous on human tumor cell lines (human, UniProt P08069 31-1367); assay: cell-based or functional assay
[2] = molecular target: T2, ErbB3 (HER3), endogenous on human tumor cell lines (human, UniProt P21860 20-1342); assay: cell-based or functional assay
[3] = molecular target: T1, IGF-1R (receptor for insulin-like …); assay: cell-based or functional assay; remark: listed apart in the source
[4] = molecular target: T2, ErbB3 (HER3), endogenous on human tumor …; assay: cell-based or functional assay; remark: listed apart in the source
[5] = molecular target: T1, IGF-1R (receptor for insulin-like …); assay: cell-based or functional assay; remark: listed apart in the source
[6] = molecular target: T2, ErbB3 (HER3), endogenous on human tumor …; assay: cell-based or functional assay; remark: listed apart in the source
[7] = molecular target: T3, rat ErbB3-His (rat, UniProt Q62799 20-641, limits assumed); assay: ELISA, species specific ErbB3-His coated plate
T3 construct: not shown: His tag, not further described for this species form
Experimental: (§1) 96-well Reacti-bind® plates (Pierce, Fisher cat. No. PI-I5041) are coated with 50 ul of species specific ErbB3-His or IGF-1R-His (R&D Systems, cat. No. 348-RB and 305-GR, respectively) at 2 ug/ml in PBS and incubated overnight at 4° C. The next day plates are washed with PBS+0.05% Tween-20 (PBS-T) and blocked for 1 hr. at room temperature with 100 ul of Protein-Free Blocking Buffer (Pierce). Plates are washed with PBS-T and 50 ul of each PBA is added in duplicate. Concentrations start at 500 nM (in PBS-T) and included ten additional two-fold dilutions and one blank (PBS-T only). Plates are incubated at room temperature for two hours and then washed with PBS-T. 50 ul of anti-Fc-HRP (Jackson Labs) is added at 1:40,000 in PBS-T, and plates are incubated in the dark for 1 hr. at room temperature. Plates are again washed with PBS-T and 100 ul of TMB substrate (Thermo Scientific, TMB and peroxide solution mixed 1:1) is added. The plates are incubated for 5-15 minutes at room temperature until a blue color develops, and the reaction is stopped with 100 ul of STOP solution (Cell Signaling Technology). The absorbance is read at 450 nm on a PerkinElmer Envision plate reader, and binding curves are generated using GraphPad Prism.

[8] = molecular target: T4, mouse ErbB3-His (mouse, UniProt Q61526 20-641, limits assumed); assay: ELISA, species specific ErbB3-His coated plate
T4 construct: not shown: His tag, not further described for this species form
Experimental: as §1

[9] = molecular target: T1, IGF-1R (receptor for insulin-like …); assay: cell-based or functional assay; remark: listed apart in the source
[10] = molecular target: T2, ErbB3 (HER3), endogenous on human tumor …; assay: cell-based or functional assay; remark: listed apart in the source
[11] = molecular target: T5, rat IGF-1R-His (rat, UniProt P24062 31-936, limits assumed); assay: ELISA, species specific IGF-1R-His coated plate
T5 construct: not shown: His tag, not further described
Experimental: as §1

[12] = molecular target: T6, mouse IGF-1R-His (mouse, UniProt Q60751 31-936, limits assumed); assay: ELISA, species specific IGF-1R-His coated plate
T6 construct: not shown: His tag, not further described
Experimental: as §1

[13] = molecular target: T1, IGF-1R (receptor for insulin-like …); assay: cell-based or functional assay; remark: listed apart in the source
[14] = molecular target: T1, IGF-1R (receptor for insulin-like …); assay: summary sentence of Example 3 (FACS on cells)
Experimental: (§2) 1×10⁵ MCF7 cells or 1×10⁵ ADRr cells are incubated at room temperature for 2 hours with each of ELI-7, ILE-10 and ILE-12, two anti-ErB3 antibodies and one anti-IGF-1R antibody at 2 uM, followed by 12 subsequent 3-fold dilutions. Then using goat anti-HSA-Alexa647 conjugated antibody as the detection antibody, cells are incubated on ice for 40 minutes. Cell binding dissociation constants (measures of binding affinities) of the antibodies on MCF7 and ADRr cells are assessed by FACS and apparent dissociation constants are determined for each protein. The following results were obtained (see also FIGS. 14A and 14B): […]

[15] = molecular target: T2, ErbB3 (HER3), endogenous on human tumor …; assay: summary sentence of Example 3 (FACS on cells)
Experimental: as §2

T2 sequence (P21860 20-1342 limits assumed): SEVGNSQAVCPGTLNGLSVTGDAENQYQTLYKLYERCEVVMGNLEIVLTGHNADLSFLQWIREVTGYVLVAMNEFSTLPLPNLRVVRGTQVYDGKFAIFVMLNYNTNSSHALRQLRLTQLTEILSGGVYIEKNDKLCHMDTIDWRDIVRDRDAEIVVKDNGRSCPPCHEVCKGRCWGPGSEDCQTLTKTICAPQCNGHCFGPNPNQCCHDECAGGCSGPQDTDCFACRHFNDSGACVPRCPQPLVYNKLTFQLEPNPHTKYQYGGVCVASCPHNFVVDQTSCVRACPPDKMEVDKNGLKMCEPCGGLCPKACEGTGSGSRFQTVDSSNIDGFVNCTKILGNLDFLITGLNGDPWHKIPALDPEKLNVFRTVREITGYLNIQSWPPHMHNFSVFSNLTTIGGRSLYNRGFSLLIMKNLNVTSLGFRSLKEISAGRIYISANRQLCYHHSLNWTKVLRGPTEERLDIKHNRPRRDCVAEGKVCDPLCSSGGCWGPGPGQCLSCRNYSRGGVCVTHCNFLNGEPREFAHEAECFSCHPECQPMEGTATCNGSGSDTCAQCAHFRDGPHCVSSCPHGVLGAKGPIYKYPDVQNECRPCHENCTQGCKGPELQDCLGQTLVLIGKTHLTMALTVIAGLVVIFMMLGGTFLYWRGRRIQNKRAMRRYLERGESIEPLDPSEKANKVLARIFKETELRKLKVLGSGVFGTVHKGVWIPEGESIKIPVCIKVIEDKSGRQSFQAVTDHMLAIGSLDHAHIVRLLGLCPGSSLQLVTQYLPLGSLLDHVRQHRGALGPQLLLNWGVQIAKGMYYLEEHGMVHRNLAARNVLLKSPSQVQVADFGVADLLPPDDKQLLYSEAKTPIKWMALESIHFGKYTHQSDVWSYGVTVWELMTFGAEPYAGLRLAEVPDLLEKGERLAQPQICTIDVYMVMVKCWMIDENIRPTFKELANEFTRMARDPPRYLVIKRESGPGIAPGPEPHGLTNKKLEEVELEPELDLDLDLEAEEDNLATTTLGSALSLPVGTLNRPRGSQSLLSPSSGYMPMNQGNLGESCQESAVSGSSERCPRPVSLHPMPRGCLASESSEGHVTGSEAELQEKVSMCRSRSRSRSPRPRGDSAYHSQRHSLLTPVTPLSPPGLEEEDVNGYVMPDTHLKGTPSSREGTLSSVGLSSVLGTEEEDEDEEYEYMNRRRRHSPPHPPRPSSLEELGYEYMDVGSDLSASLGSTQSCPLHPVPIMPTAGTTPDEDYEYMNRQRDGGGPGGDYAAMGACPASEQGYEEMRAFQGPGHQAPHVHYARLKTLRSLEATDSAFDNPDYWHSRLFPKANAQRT
T1 sequence (P08069 31-1367): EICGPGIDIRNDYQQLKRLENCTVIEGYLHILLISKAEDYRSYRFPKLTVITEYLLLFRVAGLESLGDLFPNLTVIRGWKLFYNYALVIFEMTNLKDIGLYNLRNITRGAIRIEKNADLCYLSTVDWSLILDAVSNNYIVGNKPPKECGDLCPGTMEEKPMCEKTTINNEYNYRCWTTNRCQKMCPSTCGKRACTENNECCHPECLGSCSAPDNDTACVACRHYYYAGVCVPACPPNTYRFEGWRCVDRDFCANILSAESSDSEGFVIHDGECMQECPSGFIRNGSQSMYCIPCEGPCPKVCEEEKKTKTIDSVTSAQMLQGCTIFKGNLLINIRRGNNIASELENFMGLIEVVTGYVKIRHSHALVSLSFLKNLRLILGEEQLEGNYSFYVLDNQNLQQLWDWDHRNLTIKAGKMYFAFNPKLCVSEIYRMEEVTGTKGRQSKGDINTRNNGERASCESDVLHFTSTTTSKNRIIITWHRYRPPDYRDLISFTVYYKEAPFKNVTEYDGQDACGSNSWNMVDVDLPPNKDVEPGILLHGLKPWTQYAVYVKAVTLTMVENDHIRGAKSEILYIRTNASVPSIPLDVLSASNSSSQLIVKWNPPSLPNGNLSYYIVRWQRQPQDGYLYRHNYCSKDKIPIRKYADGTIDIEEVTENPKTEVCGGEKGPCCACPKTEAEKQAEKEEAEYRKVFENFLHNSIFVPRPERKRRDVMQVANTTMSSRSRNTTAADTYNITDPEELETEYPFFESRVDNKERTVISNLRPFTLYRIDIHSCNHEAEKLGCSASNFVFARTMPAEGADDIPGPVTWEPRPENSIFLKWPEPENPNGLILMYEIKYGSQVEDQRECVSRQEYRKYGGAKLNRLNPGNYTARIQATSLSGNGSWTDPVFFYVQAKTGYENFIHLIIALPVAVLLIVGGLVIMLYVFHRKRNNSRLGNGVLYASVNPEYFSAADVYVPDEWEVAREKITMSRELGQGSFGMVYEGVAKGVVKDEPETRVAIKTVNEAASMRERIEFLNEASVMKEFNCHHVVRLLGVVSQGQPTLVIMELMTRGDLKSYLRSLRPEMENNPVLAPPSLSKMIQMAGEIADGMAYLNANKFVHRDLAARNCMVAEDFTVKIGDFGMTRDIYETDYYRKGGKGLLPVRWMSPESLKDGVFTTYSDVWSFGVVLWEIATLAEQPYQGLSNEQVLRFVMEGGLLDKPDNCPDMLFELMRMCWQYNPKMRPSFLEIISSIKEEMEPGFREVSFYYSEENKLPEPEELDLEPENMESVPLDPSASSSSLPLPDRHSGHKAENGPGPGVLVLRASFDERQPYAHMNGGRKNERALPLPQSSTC
T4 sequence (Q61526 20-641 limits assumed): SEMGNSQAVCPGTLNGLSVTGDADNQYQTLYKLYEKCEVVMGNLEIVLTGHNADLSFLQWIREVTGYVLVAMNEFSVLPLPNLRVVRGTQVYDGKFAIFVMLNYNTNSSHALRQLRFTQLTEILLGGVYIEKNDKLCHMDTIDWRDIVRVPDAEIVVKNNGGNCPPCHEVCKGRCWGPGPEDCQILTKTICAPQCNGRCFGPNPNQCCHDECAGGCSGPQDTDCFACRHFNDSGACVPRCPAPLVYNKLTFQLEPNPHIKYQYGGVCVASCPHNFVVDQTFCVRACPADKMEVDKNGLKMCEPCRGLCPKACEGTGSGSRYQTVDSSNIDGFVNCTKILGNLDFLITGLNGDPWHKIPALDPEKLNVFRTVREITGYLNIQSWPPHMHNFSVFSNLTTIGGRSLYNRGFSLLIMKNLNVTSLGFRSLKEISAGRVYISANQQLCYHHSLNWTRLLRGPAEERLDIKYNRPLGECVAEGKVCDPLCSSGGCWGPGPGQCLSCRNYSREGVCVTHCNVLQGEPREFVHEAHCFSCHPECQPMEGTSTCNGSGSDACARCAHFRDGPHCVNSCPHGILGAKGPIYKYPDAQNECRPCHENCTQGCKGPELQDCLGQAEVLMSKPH
T5 sequence (P24062 31-936 limits assumed): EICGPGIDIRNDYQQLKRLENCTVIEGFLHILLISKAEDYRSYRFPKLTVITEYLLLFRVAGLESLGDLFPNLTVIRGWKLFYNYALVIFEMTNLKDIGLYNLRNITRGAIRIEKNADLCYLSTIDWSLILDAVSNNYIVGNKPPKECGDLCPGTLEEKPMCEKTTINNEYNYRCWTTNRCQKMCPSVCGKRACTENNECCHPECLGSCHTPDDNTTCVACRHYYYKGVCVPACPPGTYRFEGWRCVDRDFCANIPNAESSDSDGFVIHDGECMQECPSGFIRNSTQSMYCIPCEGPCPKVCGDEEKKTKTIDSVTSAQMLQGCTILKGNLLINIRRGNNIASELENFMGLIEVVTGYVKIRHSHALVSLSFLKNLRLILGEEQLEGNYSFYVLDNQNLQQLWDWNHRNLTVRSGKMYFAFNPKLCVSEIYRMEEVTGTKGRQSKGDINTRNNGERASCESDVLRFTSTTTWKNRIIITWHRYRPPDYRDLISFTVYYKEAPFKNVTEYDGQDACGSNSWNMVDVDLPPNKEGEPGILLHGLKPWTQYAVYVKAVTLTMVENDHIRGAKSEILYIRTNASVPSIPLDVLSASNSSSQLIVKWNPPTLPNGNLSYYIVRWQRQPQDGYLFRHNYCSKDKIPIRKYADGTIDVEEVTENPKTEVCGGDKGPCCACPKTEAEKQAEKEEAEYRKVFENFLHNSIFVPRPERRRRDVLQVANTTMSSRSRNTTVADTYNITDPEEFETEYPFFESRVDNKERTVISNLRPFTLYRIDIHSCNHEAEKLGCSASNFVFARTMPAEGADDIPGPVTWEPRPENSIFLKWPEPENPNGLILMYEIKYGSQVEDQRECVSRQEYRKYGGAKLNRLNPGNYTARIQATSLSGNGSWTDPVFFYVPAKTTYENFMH
T3 sequence (Q62799 20-641 limits assumed): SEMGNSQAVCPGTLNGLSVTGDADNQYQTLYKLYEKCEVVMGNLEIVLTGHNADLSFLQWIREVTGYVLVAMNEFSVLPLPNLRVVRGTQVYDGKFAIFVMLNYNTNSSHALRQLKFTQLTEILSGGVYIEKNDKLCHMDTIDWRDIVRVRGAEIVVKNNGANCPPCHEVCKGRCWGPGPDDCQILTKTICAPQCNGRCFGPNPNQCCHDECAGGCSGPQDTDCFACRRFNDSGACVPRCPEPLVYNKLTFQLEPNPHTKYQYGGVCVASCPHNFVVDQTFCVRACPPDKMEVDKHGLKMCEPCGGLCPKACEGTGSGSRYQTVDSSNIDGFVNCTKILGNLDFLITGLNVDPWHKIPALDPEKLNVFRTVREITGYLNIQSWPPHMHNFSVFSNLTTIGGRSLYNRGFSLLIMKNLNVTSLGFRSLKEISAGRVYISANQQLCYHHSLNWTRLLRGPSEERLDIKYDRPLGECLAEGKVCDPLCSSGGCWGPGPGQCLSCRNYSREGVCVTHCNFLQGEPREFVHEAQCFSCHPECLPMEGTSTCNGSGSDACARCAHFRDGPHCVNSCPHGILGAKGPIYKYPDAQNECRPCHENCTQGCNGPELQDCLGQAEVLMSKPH
T6 sequence (Q60751 31-936 limits assumed): as the sequence (P24062 31-936 limits assumed) above, with G271D, F629Y, L714M counted along it

B1: ELI-7 (bispecific antibody, human IgG2, lambda)
heavy: EVQLLESGGGLVQPGGSLRLSCAASGFTFSAYNMRWVRQAPGKGLEWVSVIYPSGGATRYADSVKGRFTISRDNSKNTLYLQMNSLRAEDTAVYYCARGYYYYGMDVWGQGTLVTVSSASTKGPSVFPLAPCSRSTSESTAALGCLVKDYFPEPVTVSWNSGALTSGVHTFPAVLQSSGLYSLSSVVTVPSSNFGTQTYTCNVDHKPSNTKVDKTVERKCCVECPPCPAPPVAGPSVFLFPPKPKDTLMISRTPEVTCVVVDVSHEDPEVQFNWYVDGVEVHNAKTKPREEQFNSTFRVVSVLTVVHQDWLNGKEYKCKVSNKGLPAPIEKTISKTKGQPREPQVYTLPPSREEMTKNQVSLTCLVKGFYPSDIAVEWESNGQPENNYKTTPPMLDSDGSFFLYSKLTVDKSRWQQGNVFSCSVMHEALHNHYTQKSLSLSPGKGGGGSGGGGSGGGGSLQEVQLLESGGGLVQPGGSLRLSCAASGFTFSVYPMHWVRQAPGKGLEWVSSISSSGGATRYADSVKGRFTISRDNSKNTLYLQMNSLRAEDTAVYYCAKDFYDILTGNAFDIWGQGTMVTVSSASTGGGGSGGGGSGGGGSDIQMTQSPSSFSASTGDRVTITCRASQGISSYLAWYQQKPGKAPKLLIYAASTLQSGVPSRFSGSGSGTDFTLTISSLQPEDSATYYCQQYFTFPLTFGGGTKVEIK
light: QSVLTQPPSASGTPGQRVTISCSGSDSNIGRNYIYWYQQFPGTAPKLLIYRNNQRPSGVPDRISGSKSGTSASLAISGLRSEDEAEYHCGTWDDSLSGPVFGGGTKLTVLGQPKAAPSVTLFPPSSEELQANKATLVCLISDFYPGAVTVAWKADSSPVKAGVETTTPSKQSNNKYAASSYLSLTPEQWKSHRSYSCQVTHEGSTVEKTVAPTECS
For B1, the “pIGF-1R IC50 (BxPC-3, HRG+IGF1)” value [1] was 10 nM and the “pErbB3 IC50 (BxPC-3, HRG+IGF1)” value [2] was 3.7 nM.

B2: P4-G1-C8 (bispecific antibody, human IgG1, kappa)
heavy: not shown
light: DIQMTQSPSSLSASLGDRVTITCRASQGISSYLAWYQQKPGKAPKLLIYAKSTLQSGVPSRFSGSGSGTDFTLTISSLQPEDSATYYCQQYWTFPLTFGGGTKVEIKRTVAAPSVFIFPPSDEQLKSGTASVVCLLNNFYPREAKVQWKVDNALQSGNSQESVTEQDSKDSTYSLSSTLTLSKADYEKHKVYACEVTHQGLSSPVTKSFNRGEC
notes: IgG1-(scFv)2: anti-IGF-1R Fab, anti-ErbB3 scFv; also called P4-C8
B2 was tested, and the “pIGF1R % Inhibition (BxPC-3)” value [3] was 91%, the “pIGF1R IC50 (BxPC-3)” value [3] was 1.3e-10 M (inferred) and the “pErbB3 % Inhibition (BxPC-3)” value [4] was 94%. The “pErbB3 IC50 (BxPC-3)” value [4] was 3.6e-11 M (inferred), the “pIGF1R IC50 (BxPC-3)” value [5] was 1.3e-09 M (inferred) and the “pErbB3 IC50 (BxPC-3)” value [6] was 5.8e-07 M (inferred). For the same binder, the binding result [7] was “binds”, the binding result [8] was “binds” and the “pAKT IC50 (BxPC-3, IGF1 40 ng/ml)” value [9] was 3.8e-10 M. The “pAKT IC50 (BxPC-3, IGF1 400 ng/ml)” value [9] was 3.4e-10 M, the “pIGF1R IC50 (BxPC-3, IGF1 40 ng/ml)” value [9] was 1.1e-10 M and the “pIGF1R IC50 (BxPC-3, IGF1 400 ng/ml)” value [9] was 8.8e-11 M. For the same binder, the “pAKT IC50 (BxPC-3, HRG 20 ng/ml)” value [10] was 1.06e-10 M, the “pAKT IC50 (BxPC-3, HRG 200 ng/ml)” value [10] was 1.01e-10 M and the “pErbB3 IC50 (BxPC-3, HRG 20 ng/ml)” value [10] was 6.76e-11 M. For the same binder, the “pErbB3 IC50 (BxPC-3, HRG 200 ng/ml)” value [10] was 5.7e-11 M, the binding result [11] was “binds” and the binding result [12] was “binds”. The “% IGF1R Downregulation (A549, 24 h)” value [13] was 70% and the “% IGF1R Downregulation (BxPC-3, 24 h)” value [13] was 67%.

B3: ILE-12 (bispecific antibody, human IgG2, kappa)
heavy: EVQLLESGGGLVQPGGSLRLSCAASGFTFSVYPMHWVRQAPGKGLEWVSSISSSGGATRYADSVKGRFTISRDNSKNTLYLQMNSLRAEDTAVYYCAKDFYDILTGNAFDIWGQGTMVTVSSASTKGPSVFPLAPCSRSTSESTAALGCLVKDYFPEPVTVSWNSGALTSGVHTFPAVLQSSGLYSLSSVVTVPSSNFGTQTYTCNVDHKPSNTKVDKTVERKCCVECPPCPAPPVAGPSVFLFPPKPKDTLMISRTPEVTCVVVDVSHEDPEVQFNWYVDGVEVHNAKTKPREEQFNSTFRVVSVLTVVHQDWLNGKEYKCKVSNKGLPAPIEKTISKTKGQPREPQVYTLPPSREEMTKNQVSLTCLVKGFYPSDIAVEWESNGQPENNYKTTPPMLDSDGSFFLYSKLTVDKSRWQQGNVFSCSVMHEALHNHYTQKSLSLSPGKGGGGSGGGGSGGGGSLQEVQLLESGGGLVQPGGSLRLSCAASGFTFSVYDMYWVRQAPGKGLEWVSYIYSSGGDTDYADSVKGRFTISRDNSKNTLYLQMNSLRAEDTATYYCARASTNSIYDAMDVWGQGTTVTVSSASTGGGGSGGGGSGGGGSDIQMTQSPSSVSASVGDRVTITCRASQDITNWLAWYQQKPGKAPTLLIYDASTLQSGVPSRFSGSGSGTDFTLTISSLQPEDFATYFCQQANGFPLTFGGGTKVEIK
light: DIQMTQSPSSFSASTGDRVTITCRASQGISSYLAWYQQKPGKAPKLLIYAASTLQSGVPSRFSGSGSGTDFTLTISSLQPEDSATYYCQQYFTFPLTFGGGTKVEIKRTVAAPSVFIFPPSDEQLKSGTASVVCLLNNFYPREAKVQWKVDNALQSGNSQESVTEQDSKDSTYSLSSTLTLSKADYEKHKVYACEVTHQGLSSPVTKSFNRGEC
notes: anti-IGF-1R/anti-ErbB3 IgG2-(scFv)2: anti-IGF-1R IgG2 (module 5-7), anti-ErbB3 scFv (module 2-21)
B3: binds [14]; binds [15].
